# Measurements taken from patent US20060019335A1, “Compositions and methods to promote c-IAP autodegradation” (priority 2004, published 2006).
# T1: Livin α (Homo sapiens, UniProt Q96CA5)
# T1 construct: expressed in transfected cells; host or cells: HeLa
# T1 sequence (Q96CA5 1-298): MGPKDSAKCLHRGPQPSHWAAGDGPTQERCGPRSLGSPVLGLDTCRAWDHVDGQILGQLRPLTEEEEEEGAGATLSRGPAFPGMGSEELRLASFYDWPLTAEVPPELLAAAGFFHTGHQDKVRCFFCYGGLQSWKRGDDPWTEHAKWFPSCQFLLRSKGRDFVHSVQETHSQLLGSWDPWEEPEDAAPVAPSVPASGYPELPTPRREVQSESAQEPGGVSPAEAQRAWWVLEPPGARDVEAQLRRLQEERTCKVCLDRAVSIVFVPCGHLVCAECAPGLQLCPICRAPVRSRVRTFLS
# B1: Smac ΔA: Smac mutant lacking the initial Ala (Ala deletion mutant polypeptide), used as negative control (protein, UniProt Q9NR28 22-239, looked up, variant A1*)
# Diablo IAP-binding …: LCVPVVANFKKRCFSELIRPWHKTVTIGFGVTLCVPIAQKSEPHSLSSEALMRRAVSLVTDSTSTFLSQTTYALIEAITEYTKAVYTLTSLYRQYTSLLGKMNSEEEDEVWQVIIGARAEMTSKHQEYLKLETTWMTAVGLSEMAAEAAYQTGADQASITARNHIQLVKLQVEEVHQLSRKAETKLAEAQIEELRQKTQEEGEERAESEQEAYLRED
# B2: Smac: wild type (WT) Smac polypeptide from Homo sapiens, SEQ ID NO 1, 239 amino acids; second mitochondria-derived activator of caspase (protein, listed as Homo sapiens)
# chain: MAALKSWLSRSVTSFFRYRQCLCVPVVANFKKRCFSELIRPWHKTVTIGFGVTLCAVPIAQKSEPHSLSSEALMRRAVSLVTDSTSTFLSQTTYALIEAITEYTKAVYTLTSLYRQYTSLLGKMNSEEEDEVWQVIIGARAEMTSKHQEYLKLETTWMTAVGLSEMAAEAAYQTGADQASITARNHIQLVKLQVEEVHQLSRKAETKLAEAQIEELRQKTQEEGEERAESEQEAYLRED
# Columns and labels:
# Livin α = target: T1, Livin α; assay: Co-transfection of HeLa cells with Livin α and Smac plasmids, Western blot; type: cell-based; details: for auto-ubiquitylation of Livin: FIG. 3B
# Procedure: Transfection of cultured Cells—HeLa cells were grown in DMEM supplemented with 10% fetal bovine serum. Cells were seeded onto 6-well plates the day before transfection and transfected at 70% confluence by using Lipofectin combined with Plus reagent (Invitrogen) according to the manufacture's protocols. The IAP expression plasmids (3 μg each for c-IAP1, c-IAP2 and XIAP, and 250 ng each for Livin αand Livin β) together with 2.5 μg of Smac expression plasmids or pcDNA3.1(−) blank plasmid were used for single-well transfection in the absence of antibiotics. The cells were harvested 12 hours after the transfection and lysed with 0.5% CHAPS in 20 mM HEPES (pH 7.4), 10 mM KCl, 1 mM MgCl2 and 1 mM DTT. The lysates were centrifuged and the protein concentrations of the supernatants were quantified by the modified Bradford method (36).
# Western Blot analysis—Proteins were resolved by SDS-PAGE and transferred to nitrocellulose filters. The filters were blocked with 5% milk and probed with antibodies as indicated. The signals were visualized with the enhanced chemiluminescence method.
# In the current study, Livin was also transiently expressed in HeLa cells to determine the ubiquitylation activity (see FIG. 3B). Briefly, Livin α WT or H269A mutant plasmids together with Smac WT or Smac ΔA mutant, or with pcDNA3.1(−) blank plasmid, were co-transfected into HeLa cells. As controls, HeLa cells were also transfected with either Smac WT or ΔA plasmids together with the blank p3×FLAG-CMV-7 plasmid. The transfected cells were cultivated either in the absence (see lanes 1-7 of FIG. 3B) or in the presence (see lane 8-14 of FIG. 3B) of MG132. Equal amounts of soluble proteins (7 μg) from the transfected cells were immunoblotted with either the HRP-conjugated anti-FLAG antibody (see top panel of FIG. 3B) to detect N-terminal 3×FLAG tagged IAPs, or with the anti-c-Myc antibody (see middle panel of FIG. 3B) to detect Smac. The anti-Actin immunoblotting results were to show equal protein loading (see bottom panel of FIG. 3B). […]
# c-IAP1 = assay: In vitro ubiquitylation assay of purified c-IAP1 and BIR deletion mutants; type: biochemical, human; details: for c-IAP1 auto-ubiquitylation in vitro: full length c-IAP1, UbCH6 as E2, FIG. 7A
# Procedure: In vitro ubiquitylation assays—In vitro ubiquitylation assays were carried out as previously described (29). IAP proteins (200 nM) were incubated with or without Smac polypeptide for 2 hours at 30° C. in a reaction system containing 50 mM Tris-HCl (pH 7.5), 50 mM NaCl, 2 mM Mg-ATP, 20 μM mammalian ubiquitin, 100 nM rabbit ubiquitin-activating enzyme (E1) and 400 nM of recombinant human ubiquitin-conjugating enzymes (E2). The reactions were stopped by adding equal volumes of 2×SDS sample loading buffer followed by Western Blot analysis.
# To determine whether Smac promotes auto-ubiquitylation of XIAP, purified XIAP (without tag) was incubated for 2 hours at 30° C. either with or without different concentrations of Smac or with Smac ΔA in the reconstituted ubiquitylation reaction system (Ub Mix) consisting of 50 mM Tris-HCl (pH 7.5), 50 mM NaCl, 2 mM Mg-ATP, 20 μM mammalian ubiquitin, 100 nM rabbit ubiquitin-activating enzyme (E1) and 400 nM UbCH6 (E2). The reactions were stopped by adding equal volumes of 2×SDS sample loading buffer and the products were subjected to SDS-PAGE followed by immunoblotting with anti-XIAP antibody. The purified XIAP was active in directing poly-ubiquitylation. But the auto-ubiquitylation of XIAP was not enhanced by Smac.
# Smac ΔA and the peptide Smac-7M were used as negative controls. The reactions were stopped by adding equal volumes of 2×SDS sample loading buffer and the products were subjected to SDS-PAGE followed by immunoblotting with anti-c-IAP1 antibody. The arrows indicate the unmodified full length or deleted c-IAP1.
# To verify this, stepwise deletion was performed of the first BIR (ΔBIR1, residues 1-161), the first two BIRs (ΔBIR1-2, residues 1-265), or all the three BIR domains (ΔBIR1-2-3, residues 1-339) from c-IAP1. All these mutants and the full-length wild type c-IAP1 were purified as a non-tagged form by using the pTYB11 Intein system (New England Biolabs).
Molecule,auto-ubiquitylation of Livin (Livin α),c-IAP1 auto-ubiquitylation in vitro (c-IAP1),c-IAP1 auto-ubiquitylation in vitro (c-IAP1; listed as Smac mutant lacking the initial Ala residue),"E3 activity of c-IAP1ΔBIR1 (c-IAP1; peptides and controls, FIG. 7B)","degradation of Livin α (Livin α; absence of MG132, FIG. 3B)","auto-ubiquitylation activity of c-IAP1 ΔBIR1-2-3 (c-IAP1; all three BIR domains deleted (residues 1-339), FIG. 7A)","auto-ubiquitylation activity of c-IAP1 ΔBIR1 (c-IAP1; first BIR deleted (residues 1-161), FIG. 7A)","auto-ubiquitylation activity of c-IAP1 ΔBIR1-2 (c-IAP1; first two BIRs deleted (residues 1-265), FIG. 7A)"
B1,stimulated the auto-ubiquitylation of XIAP and Livin,failed to promote such auto-ubiquitylation,did not promote the E3 activity,failed to activate c-IAP1,,,,
B2,effectively stimulates auto-ubiquitylation of Livin α,significantly enhanced c-IAP1 auto-ubiquitylation,,,slightly promoted the degradation of Livin α,could no longer be enhanced,significantly enhanced,significantly enhanced
